Assay: yeast display, Sf9 membrane polyspecificity reagent, FACS + sequencing; frameworks hold sequencing errors
How it was run: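 Genes from sorted yeast were amplified by colony PCR, read by MiSeq 2 × 250 sequencing and filtered on CDR length. These cells carried a synthetic nanobody library in Saccharomyces cerevisiae BJ5465 and were sorted by FACS into low and high (top ~1%) gates on anti-HA and streptavidin fluorescence. Polyreactivity is labelled according to the gate of origin.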
With “QVQLQESGGGLVQAGGSLRLSCAASGTIFRFRYMGWHRQAPGKERELVAGINGGTTTYYADSVIGRFTISRDNAINTVYLQMNSLKPDDTAVYNCAAGASRLTYYDYWGQGTQVTVSS” the “polyreactivity (PSR sort gate)” value was “low polyreactivity”. For “QVQLQESGGGLVQAGGSLRLSCAASGTIFTARFMGWSRQAPGKERDLVATITDGGNTNHADSVKGRFTISRDNAKNTVYLQMNSLKPEDAAVNYSAAGEVDNDTLLYWGQGSQVTVSS”, the “polyreactivity (PSR sort gate)” value was “low polyreactivity”. In the case of “QVQLQESGGGLVQAGGSLRLSCAASGTIFTARIMGWYRQAPGKERELVATITDGGNTNHADSVKCRFTISRDNAKITVYLQMNSLKPEDAAVYYCAAGEVDNDTLLYWGQGSQVTVSS”, the “polyreactivity (PSR sort gate)” value is reported as “low polyreactivity”. In the case of “QVQLQESGGGLVQAGGSLRLSCAASGTIFWLWAMGWYCQAPGKERELVASISSGGTTYHADSVKGRFTISRDNAKNTVYLQMNSLKPEDTAVYYSAAFYVATSKLGFWGQGSQVTVSS”, the “polyreactivity (PSR sort gate)” value is reported as “low polyreactivity”. In the case of “QVQLQESGGGLVQAGGSLRLSCAASGTISDSGLMGWYRQAPGKERELVAGISSGGITNYADSVKGRFTISRDNAKNKVYLQMNSLKPEDTAVYWGQGTQVTVSS”, the “polyreactivity (PSR sort gate)” value is reported as “low polyreactivity”. With “QVQLQESGGGLVQAGGSLRLSCAASGTISEDDWSGWYRQAPGKERELVAAIGLGSNTNYADSLKGRFPISRDNAKNTVYLQMNSLKPEDTAVYYSAVSVWQYSDNVYRGQGTQVTVSS” the “polyreactivity (PSR sort gate)” value was “low polyreactivity”. For “QVQLQESGGGLVQAGGSLRLSCAASGTITFAAYMGWYRQAPGKEREYVASIGYGATTYYADSEKGRFTISRDNANNTVYLPMNSLKPGDTAVYYCAVDRSPQYRYLYYWGQGTQVTVCS”, the “polyreactivity (PSR sort gate)” value was “high polyreactivity”. With “QVQLQESGGGLVQAGGSLRLSCAASGTITQEDWMGWYRQAPGKEREFVAAIGLGSNTNYADSLKGRFTISRDNAKNTVYLQMNSLKPEDTGVYYCAVSVWQYSDHVYRGQGTQVTVSS” the “polyreactivity (PSR sort gate)” value was “low polyreactivity”. With “QVQLQESGGGLVQAGGSLRLSCAASGTITVLYKMGWFRQAPGKEREFVASINYGTSTYYADSVKGRFTVSRDSAKNTVYLQMNSRKPEDTAVYYCAAAYRWQDVYRYWGQGTQVTVSS” the “polyreactivity (PSR sort gate)” value was “low polyreactivity”. For “QVQLQESGGGLVQAGGSLRLSCAASGYISFSGYMGRYRQAPGKEREFVDSITPGRSTYYADSVKGRFTISRDNAENTVYLQMNSLKPEDTAVYYCAADDSRTEQHAYWGQGTQVTVSS”, the “polyreactivity (PSR sort gate)” value was “high polyreactivity”. With “QVQLQESGGGLVQAGGSLRLSCAASGYISSWYPMGWYRQAPGKEREFVATIAPGATTYYADSVKGRFTISRDYAKNTVYLQMNSLKPEDTAVYFCAAGPENNDFYSYWGQGTQVTVSS” the “polyreactivity (PSR sort gate)” value was “low polyreactivity”. In the case of “QVQLQESGGGLVQAGGSLRLSCAASGYISTFSSEMGWYRQAPGKERELVASIAPGCTTSYADSVKGRFTISRDNAKNTVYLQMHRLKPEDTAVYYCAVDYTVPASFGYWGQGTQVTVSS”, the “polyreactivity (PSR sort gate)” value is reported as “high polyreactivity”. For “QVQLQESGGGLVQAGGSLRLSCAASGYISYWIYMGCYRQAPGKERELLPVLITVLVPIMRIACKAGFTISRDNAKNSVYLQMNSQKPEDTALYYCAVSWYNGDYFSYWGQGTQVTVSS”, the “polyreactivity (PSR sort gate)” value was “low polyreactivity”. In the case of “QVQLQESGGGLVQAGGSLRLSCAASGYITYFVGMGWYRQPPGKEREFVASIADGSNTYYADSVKGRFTISRDNAKNTVYLQRNSLKPEDTAVYYCAVVDSWTYRFDYWGQGTQVTVSS”, the “polyreactivity (PSR sort gate)” value is reported as “high polyreactivity”. In the case of “QVQLQESGGGLVQAGGSLRLSCAASVTISDSGLMGWYRQAPGKERELVAGISSGGITNYADSVKGRFTISRDNAKNTVYLQMNSLKPEVTAVYWGQGTKVTVSS”, the “polyreactivity (PSR sort gate)” value is reported as “low polyreactivity”. In the case of “QVQLQESGGGLVQAGGSLRLSCAATGSIFYRLKMGWHRQAPGKERELVATIDPGSNTYYADSVKGSFTISRDNAKNTVYPQMYSLKPEDTAVYYCAVSAHWTIHYYYWGQGTQVTVSS”, the “polyreactivity (PSR sort gate)” value is reported as “high polyreactivity”. In the case of “QVQLQESGGGLVQAGGSLRLSCASSGTISQEDWKGWYRQAPGKEREFVAAIGLGSNTNYADSLKGRFTISRDNAKNTVYLQMNSLKPEDTAVYYCAVSVWQYSDHVYRGQGTQVTVSS”, the “polyreactivity (PSR sort gate)” value is reported as “low polyreactivity”. For “QVQLQESGGGLVQAGGSLRLTCAASGTISQEDWLGWYLQAPGKEREFVAAIGLGSNTNYADSLKGRFTISRDNAQNTVYLQMNSLKAEYTAVYYCAVSVWQYSDHVYRGQGTQVTVSS”, the “polyreactivity (PSR sort gate)” value was “low polyreactivity”.
